Test results: PMC2196205

B1: Htelo (structured_DNA)
DNA: GGTTAGGGTTAGGGTTAGGGTTAGGGTTAG
B2: ZifDNA (dsDNA)
DNA 1: GGCATAGTGCGTGGGCGTTAGC
DNA 2: GCTAACGCCCACGCACTATGCC

Columns and labels:
[1] = biological target: T1, Zif268 (mouse, UniProt P08046 333-421); assay: SPR
[2] = biological target: T1, Zif268; assay: SPR; remark: listed apart in the source
[3] = biological target: T1, Zif268; assay: ELISA

Binder	binding result [1]	Kd [2] [nM]	Kd [3] [nM]
B1	no binding		
B2		5.3 ± 1.5	12 ± 5
